Measured values: US20230398116A1, “Agent for reversing resistance to anticancer drugs” (Y'S AC CO., LTD., priority 2020, published 2023)

Target: T1, IL-26 (Homo sapiens, UniProt Q9NPH9)
T1 sequence (Q9NPH9 22-171): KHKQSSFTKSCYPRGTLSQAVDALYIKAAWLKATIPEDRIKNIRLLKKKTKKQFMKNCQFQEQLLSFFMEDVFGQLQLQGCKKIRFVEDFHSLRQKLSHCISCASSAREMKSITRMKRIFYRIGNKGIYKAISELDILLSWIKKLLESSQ
Assay: MTT assay of HUVECs stimulated with IL-26 (neutralizing activity of IL-26)
Format: cell-based
Parameters: purchased R&D Systems; host or cells: added exogenously to HUVECs
Details: HUVECs, IL-26 10 ng/mL, 48 hours, MTT assay
Description: Human and mouse breast cancer cells (1×10^4) were cultured in 10% FCS containing RPMI1640 medium on a 96-well flat bottom plate (Corning, Tewksbury, MA) at 37° C. for 24 hours, and then stimulated with IL-26 for 48 hours in the presence or absence of EGFR-TKI (gefitinib or erlotinib) at various concentrations, a signal inhibitor, and a neutralizing antibody. HUVECs were seeded in a 96-well flat bottom plate at 5×10^3 cells/well in a 2% FBS-containing EGM medium in which growth factors were reduced by half, and cultured at 37° C. for 12 hours. Thereafter, the medium was aspirated, and a recombinant human IL-26 dimer was adjusted to a final concentration of 10 ng/mL in a 2% FBS-containing EGM medium containing no growth factors, and added to the cells. The stimulation was started in the presence or absence of control human IgG and anti-human IL-26 antibodies, and the cells were cultured for 48 hours. Thereafter, a concentration of 20 μl or 1/10 of a 5 mg/ml MTT solution (Tetrazolium monosodium salt, WST-8) was added to each well, and the plate was allowed to stand for 1 hour. The absorbance at 450 nm/595 nm was measured using Microplate Reader (Bio-Rad, Hercules, CA) and data was analyzed with Microplate Manager 6 software (Bio-Rad).

B1: 69-10: mouse anti-human IL-26 monoclonal antibody, clone 69-10, from deposited hybridoma (antibody, V domains shown)
VH: QVTLKESGPGILKPSQTLSLTCSFSGFSLSTSGMGVGWIRQPSGKGLEWLAHIWWDDDKYYNPSLKSQLTISKDTSRNQVFLKITSVDTADTATYYCVRGGITATHYYAMDYWGQGTSVTVSS
VL: DIQMTQSPASQSASLGESVTISCLASQTIGTWLSWYQQKPGKSPQLLIYAATSLADGVPSRFSGSGSGTKFSFKISSLQAEDFVSYYCQQLYSSPWTFGGGTKLEIK
**Q.** B1 was tested. Which “inhibitory effect of IL-26 (IL-26-promoted proliferation of HUVECs)” value did it give?
**A.** Its value is “not inferior to that of the commercially available goat anti-human IL-26 polyclonal antibody”.
